The values that follow come from publication PMC11417369, “DNA sequence and chromatin differentiate sequence-specific transcription factor binding in the human malaria parasite Plasmodium falciparum”.

T1: SIP2 D1 (Plasmodium falciparum, UniProt C6KSN9 177-235)
T1 sequence: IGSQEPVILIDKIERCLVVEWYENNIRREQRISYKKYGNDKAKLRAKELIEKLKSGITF

T2: HDP1 homeodomain-like (Plasmodium falciparum, UniProt Q8IKH4 2990-3078)
T2 sequence: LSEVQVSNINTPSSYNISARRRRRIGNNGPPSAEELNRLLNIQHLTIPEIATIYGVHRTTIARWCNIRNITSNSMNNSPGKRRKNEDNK

B1: GTGCAC_negctrl_site36 (dsDNA)
DNA 1: TTATGTGATAAAAAAAAAATACAACAAAGTTAAATA
DNA 2: TATTTAACTTTGTTGTATTTTTTTTTTATCACATAA
B2: GTGCAC_negctrl_site259 (dsDNA)
DNA 1: TATTTACAACAAATTTAATTATTTTTAACTTATAAA
DNA 2: TTTATAAGTTAAAAATAATTAAATTTGTTGTAAATA
B3: GTGCAC_negctrl_site440 (dsDNA)
DNA 1: TTTTTTATTCCATAATATAATATGTTTTGAAATTTG
DNA 2: CAAATTTCAAAACATATTATATTATGGAATAAAAAA
B4: GTGCAC_negctrl_site376 (dsDNA)
DNA 1: AACAGAATAATACTAAATGAACGATTTCTCTTTATG
DNA 2: CATAAAGAGAAATCGTTCATTTAGTATTATTCTGTT
B5: GTGCAC_negctrl_site610 (dsDNA)
DNA 1: AATATATGGTTTCATGATATAAAATTCAATTTAATG
DNA 2: CATTAAATTGAATTTTATATCATGAAACCATATATT
B6: GTGCAC_negctrl_site308 (dsDNA)
DNA 1: TAATAATAGTACTGACATCAAAATCTTATTAAAAAT
DNA 2: ATTTTTAATAAGATTTTGATGTCAGTACTATTATTA
B7: GTGCAC_negctrl_site402 (dsDNA)
DNA 1: AAAAAAAAAATACAACAAAGTTAAATAAATAAATAA
DNA 2: TTATTTATTTATTTAACTTTGTTGTATTTTTTTTTT
B8: GTGCAC_negctrl_site735 (dsDNA)
DNA 1: AAAATTAATTATTACAAAAATGAAAAGACATATTTT
DNA 2: AAAATATGTCTTTTCATTTTTGTAATAATTAATTTT
B9: GTGCAC_negctrl_site554 (dsDNA)
DNA 1: AAAAAAAAAAAATATTGTAGAATATGATGACTTTGT
DNA 2: ACAAAGTCATCATATTCTACAATATTTTTTTTTTTT
B10: GTGCAC_negctrl_site104 (dsDNA)
DNA 1: TTTTTTTTTTCTTTTTTTTATTATATTAACGGAATT
DNA 2: AATTCCGTTAATATAATAAAAAAAAGAAAAAAAAAA
B11: GTGCAC_negctrl_site329 (dsDNA)
DNA 1: TTTTTTTCTTTTTCAAAAAAAAAAAAAAAAAAAATA
DNA 2: TATTTTTTTTTTTTTTTTTTTTGAAAAAGAAAAAAA
B12: GTGCAC_negctrl_site204 (dsDNA)
DNA 1: TAATATGTTTATGGTAACATACAAAAATGTATATAT
DNA 2: ATATATACATTTTTGTATGTTACCATAAACATATTA
B13: GTGCAC_negctrl_site443 (dsDNA)
DNA 1: ATATAATTTGTTATACTAACTTTTTAATTATTGATA
DNA 2: TATCAATAATTAAAAAGTTAGTATAACAAATTATAT
B14: GTGCAC_negctrl_site266 (dsDNA)
DNA 1: AATCAATATAAATAAAATTTTTAATTTTAACCCTAA
DNA 2: TTAGGGTTAAAATTAAAAATTTTATTTATATTGATT
B15: GTGCAC_negctrl_site522 (dsDNA)
DNA 1: TTTTTTACGCATAACTTAATATGAGAATCCCTTTCT
DNA 2: AGAAAGGGATTCTCATATTAAGTTATGCGTAAAAAA
B16: GTGCAC_negctrl_site428 (dsDNA)
DNA 1: AATATATGTATATATTTTTTTTTTTCCCTTACAAAT
DNA 2: ATTTGTAAGGGAAAAAAAAAAATATATACATATATT
B17: GTGCAC_negctrl_site82 (dsDNA)
DNA 1: CTGATATATTATTTATCTGAATATATTAATATGTAT
DNA 2: ATACATATTAATATATTCAGATAAATAATATATCAG
B18: GTGCAC_negctrl_site493 (dsDNA)
DNA 1: TTCTCAAATATAATAAAATTATAAAGTGACCTAACT
DNA 2: AGTTAGGTCACTTTATAATTTTATTATATTTGAGAA
B19: GTGCAC_negctrl_site626 (dsDNA)
DNA 1: AAAATATAAATATATTTGAACATGGATCAAATGTAA
DNA 2: TTACATTTGATCCATGTTCAAATATATTTATATTTT
B20: GTGCAC_negctrl_site503 (dsDNA)
DNA 1: AAACAAAAGTAGAAGGTAGAGTATTTTATATTTAAA
DNA 2: TTTAAATATAAAATACTCTACCTTCTACTTTTGTTT
B21: GTGCAC_negctrl_site132 (dsDNA)
DNA 1: AAAGTAACACACTAATATTTTAACAAATAATATATA
DNA 2: TATATATTATTTGTTAAAATATTAGTGTGTTACTTT
B22: GTGCAC_negctrl_site167 (dsDNA)
DNA 1: TTGTATTTACACGATCAACCAAATGGTATATAAATA
DNA 2: TATTTATATACCATTTGGTTGATCGTGTAAATACAA
B23: GTGCAC_negctrl_site520 (dsDNA)
DNA 1: AAAAAAAAATAAATAAATATATATAATATTTATGTT
DNA 2: AACATAAATATTATATATATTTATTTATTTTTTTTT
B24: GTGCAC_negctrl_site199 (dsDNA)
DNA 1: AAAATTATATTTTATAGAAATTTAAATAAATATATA
DNA 2: TATATATTTATTTAAATTTCTATAAAATATAATTTT
B25: GTGCAC_negctrl_site350 (dsDNA)
DNA 1: TTCACTTTTTTTTTTTTTTTTTTTTTTTTTTTTATT
DNA 2: AATAAAAAAAAAAAAAAAAAAAAAAAAAAAAGTGAA
B26: GTGCAC_negctrl_site724 (dsDNA)
DNA 1: TCCTCAAAAAAATAAAATAATTTATACTTTTTTAAA
DNA 2: TTTAAAAAAGTATAAATTATTTTATTTTTTTGAGGA

One data set concerns the target T1, SIP2 D1. In words: gcPBM; about 25 ug protein; PBS, 1% milk, 0.2 mg/ml BSA, salmon testes DNA, 0.03% Triton X-100. Particulars: tags: N-terminal GST (pGEX-4T-1), kept; label: surface-attached array probe.
Regarding B1, the binding signal is 6.76 ln median PBM intensity, better of two orientations.

Turning to B2, the binding signal was 6.7 ln median PBM intensity, better of two orientations.

For the molecule B3, the binding signal was 6.8 ln median PBM intensity, better of two orientations.

Take B4: the binding signal was 6.78 ln median PBM intensity, better of two orientations.

For B5, the binding signal was 6.78 ln median PBM intensity, better of two orientations.

Turning to B6, the binding signal is 6.81 ln median PBM intensity, better of two orientations.

For the molecule B7, the binding signal is 6.65 ln median PBM intensity, better of two orientations.

Consider B8, for which the binding signal is 6.68 ln median PBM intensity, better of two orientations.

In the case of B9, the binding signal is 6.85 ln median PBM intensity, better of two orientations.

Take B10: the binding signal is 6.89 ln median PBM intensity, better of two orientations.

As for B11, the binding signal is 6.85 ln median PBM intensity, better of two orientations.

For B12, the binding signal was 6.79 ln median PBM intensity, better of two orientations.

With B13, the binding signal is 6.82 ln median PBM intensity, better of two orientations.

With B14, the binding signal is 6.64 ln median PBM intensity, better of two orientations.

Regarding B15, the binding signal was 6.89 ln median PBM intensity, better of two orientations.

With B16, the binding signal is 6.66 ln median PBM intensity, better of two orientations.

In the case of B17, the binding signal was 6.78 ln median PBM intensity, better of two orientations.

Take B18: the binding signal is 6.88 ln median PBM intensity, better of two orientations.

On to B19, for which the binding signal is 6.71 ln median PBM intensity, better of two orientations.

As to B20, the binding signal is 6.67 ln median PBM intensity, better of two orientations.

Consider B21, for which the binding signal was 6.76 ln median PBM intensity, better of two orientations.

On to B22, for which the binding signal was 6.87 ln median PBM intensity, better of two orientations.

As to B23, the binding signal is 6.84 ln median PBM intensity, better of two orientations.

As for B24, the binding signal is 6.79 ln median PBM intensity, better of two orientations.

Regarding B25, the binding signal is 6.86 ln median PBM intensity, better of two orientations.

Consider B26, for which the binding signal is 6.79 ln median PBM intensity, better of two orientations.

For the next data set, the target named is T2, HDP1 homeodomain-like. The description is as above. Particulars: tags: N-terminal GST (pGEX-4T-1), kept; chain copies: 2; label: surface-attached array probe.
For B1, the binding signal was 6.32 ln median PBM intensity, better of two orientations.

Turning to B2, the binding signal was 6.18 ln median PBM intensity, better of two orientations.

As for B3, the binding signal is 6.16 ln median PBM intensity, better of two orientations.

As for B4, the binding signal was 5.96 ln median PBM intensity, better of two orientations.

On to B5, for which the binding signal was 6.09 ln median PBM intensity, better of two orientations.

For the molecule B6, the binding signal is 5.97 ln median PBM intensity, better of two orientations.

For B7, the binding signal is 6.34 ln median PBM intensity, better of two orientations.

On to B8, for which the binding signal is 5.96 ln median PBM intensity, better of two orientations.

Take B9: the binding signal was 6.29 ln median PBM intensity, better of two orientations.

With B10, the binding signal was 6.2 ln median PBM intensity, better of two orientations.

As to B11, the binding signal was 5.41 ln median PBM intensity, better of two orientations.

On to B12, for which the binding signal was 6.05 ln median PBM intensity, better of two orientations.

As to B13, the binding signal is 6.13 ln median PBM intensity, better of two orientations.

With B14, the binding signal was 6.24 ln median PBM intensity, better of two orientations.

Regarding B15, the binding signal was 6.33 ln median PBM intensity, better of two orientations.

Consider B16, for which the binding signal was 6.17 ln median PBM intensity, better of two orientations.

In the case of B17, the binding signal is 6.08 ln median PBM intensity, better of two orientations.

In the case of B18, the binding signal is 6.1 ln median PBM intensity, better of two orientations.

As to B19, the binding signal was 6.08 ln median PBM intensity, better of two orientations.

As to B20, the binding signal is 6.07 ln median PBM intensity, better of two orientations.

On to B21, for which the binding signal is 6.15 ln median PBM intensity, better of two orientations.

Consider B22, for which the binding signal was 6.23 ln median PBM intensity, better of two orientations.

As to B23, the binding signal was 6.16 ln median PBM intensity, better of two orientations.

In the case of B24, the binding signal was 6 ln median PBM intensity, better of two orientations.

In the case of B25, the binding signal is 6 ln median PBM intensity, better of two orientations.

On to B26, for which the binding signal was 6.01 ln median PBM intensity, better of two orientations.
